Paper PMC9482650, “Quantitative fragmentomics allow affinity mapping of interactomes” (Nature Communications, 2022)
Each block holds one binder with its values, some of them ahead of it.

What was measured:
Assay in all cases: holdup assay
Design in all cases: key: below the threshold = too weak to quantify, mostly under pKd 3.1 to 4
Conditions in all cases: plain residues with an end cap or a label only (N-terminal biotin on a linker: ado-ado)
GRID2IP_2, A4D2P6 = target: GRID2IP_2, A4D2P6
HTRA3, P83110 = target: T1, HTRA3, P83110
T1 sequence (P83110 354-453, limits assumed, looked up): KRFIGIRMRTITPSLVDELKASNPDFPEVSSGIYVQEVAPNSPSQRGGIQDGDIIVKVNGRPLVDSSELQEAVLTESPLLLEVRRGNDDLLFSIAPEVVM

SCRIB_3, Q14160 = target: SCRIB_3, Q14160
GOPC, Q9HD26 = target: GOPC, Q9HD26
DLG5_1, Q8TDM6 = target: DLG5_1, Q8TDM6
LAP2, Q96RT1 = target: LAP2, Q96RT1
MAGI2_4, Q86UL8 = target: MAGI2_4, Q86UL8
SCRIB_2, Q14160 = target: SCRIB_2, Q14160
GRIP2_5, Q9C0E4 = target: GRIP2_5, Q9C0E4
Inadl_10, Q8NI35 = target: Inadl_10, Q8NI35
IL16_3, Q14005 = target: IL16_3, Q14005
SNTG1, Q9NSN8 = target: T2, SNTG1, Q9NSN8
T2 sequence (Q9NSN8 52-150, limits assumed, looked up): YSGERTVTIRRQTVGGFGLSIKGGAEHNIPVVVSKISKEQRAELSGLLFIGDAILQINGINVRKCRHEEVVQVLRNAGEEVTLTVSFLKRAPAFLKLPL

GRIP2_7, Q9C0E4 = target: GRIP2_7, Q9C0E4
NHERF4_1, Q86UT5-2 = target: NHERF4_1, Q86UT5-2
SNX27, Q96L92 = target: SNX27, Q96L92
PCLO, Q9Y6V0 = target: T3, PCLO, Q9Y6V0
T3 sequence (Q9Y6V0 4491-4600, limits assumed, looked up): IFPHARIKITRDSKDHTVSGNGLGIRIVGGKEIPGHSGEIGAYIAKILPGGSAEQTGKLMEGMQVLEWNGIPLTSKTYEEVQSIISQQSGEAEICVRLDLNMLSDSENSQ

LIN7B, Q9HAP6 = target: T4, LIN7B, Q9HAP6
T4 sequence (Q9HAP6 88-185, limits assumed, looked up): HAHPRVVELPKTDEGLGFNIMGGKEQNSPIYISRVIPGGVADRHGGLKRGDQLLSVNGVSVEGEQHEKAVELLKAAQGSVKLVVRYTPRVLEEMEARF

LNX2_2, Q8N448 = target: T5, LNX2_2, Q8N448
T5 sequence (Q8N448 334-432, limits assumed, looked up): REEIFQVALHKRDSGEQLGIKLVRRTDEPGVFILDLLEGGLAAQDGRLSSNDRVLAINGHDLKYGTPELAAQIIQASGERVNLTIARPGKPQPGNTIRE

NHERF4_2, Q86UT5 = target: NHERF4_2, Q86UT5
Inadl_5, Q8NI35 = target: Inadl_5, Q8NI35
NHERF3_1, Q5T2W1 = target: T6, NHERF3_1, Q5T2W1
T6 sequence (Q5T2W1 4-100, limits assumed, looked up): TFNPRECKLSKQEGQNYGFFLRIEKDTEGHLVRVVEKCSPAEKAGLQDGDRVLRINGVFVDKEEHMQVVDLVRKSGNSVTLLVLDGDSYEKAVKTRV

CARD11, Q9BXL7 = target: T7, CARD11, Q9BXL7
T7 sequence (Q9BXL7 662-765, limits assumed, looked up): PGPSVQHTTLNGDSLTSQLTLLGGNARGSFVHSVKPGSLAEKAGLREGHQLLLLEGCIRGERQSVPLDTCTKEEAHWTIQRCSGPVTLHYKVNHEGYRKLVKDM

LDB3, O75112 = target: LDB3, O75112
DLG4_3, P78352 = target: DLG4_3, P78352
NHERF3_3, Q5T2W1 = target: T8, NHERF3_3, Q5T2W1
T8 sequence (Q5T2W1 238-333, limits assumed, looked up): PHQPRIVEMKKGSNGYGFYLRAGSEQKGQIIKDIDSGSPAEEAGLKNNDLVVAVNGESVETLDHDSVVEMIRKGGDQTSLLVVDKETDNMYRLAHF

LRRC7, Q96NW7 = target: T9, LRRC7, Q96NW7
T9 sequence (Q96NW7 1440-1537, limits assumed, looked up): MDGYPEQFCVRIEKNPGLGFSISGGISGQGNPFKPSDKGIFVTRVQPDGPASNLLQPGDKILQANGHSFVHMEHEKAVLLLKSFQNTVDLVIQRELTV

TJP2_1, Q9UDY2 = target: TJP2_1, Q9UDY2
PICK1, Q9NRD5 = target: PICK1, Q9NRD5
PICK1, Q9NRD5, sequence (Q9NRD5 17-115): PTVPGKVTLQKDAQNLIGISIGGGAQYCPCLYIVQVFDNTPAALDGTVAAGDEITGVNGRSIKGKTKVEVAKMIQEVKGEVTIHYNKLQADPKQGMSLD

GRID2IP_2, A4D2P6, sequence (A4D2P6 272-370): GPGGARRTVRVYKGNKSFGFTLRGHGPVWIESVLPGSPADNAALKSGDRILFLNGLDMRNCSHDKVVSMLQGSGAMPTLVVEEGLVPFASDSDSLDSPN
NHERF4_2, Q86UT5, sequence (Q86UT5 220-308): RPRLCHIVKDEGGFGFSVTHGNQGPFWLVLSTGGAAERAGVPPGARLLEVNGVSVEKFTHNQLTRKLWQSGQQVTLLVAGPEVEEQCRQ
SCRIB_2, Q14160, sequence (Q14160 857-960): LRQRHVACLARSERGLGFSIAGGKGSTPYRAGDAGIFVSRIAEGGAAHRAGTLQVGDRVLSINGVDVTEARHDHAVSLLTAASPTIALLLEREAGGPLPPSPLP
DLG4_3, P78352, sequence (P78352 306-403): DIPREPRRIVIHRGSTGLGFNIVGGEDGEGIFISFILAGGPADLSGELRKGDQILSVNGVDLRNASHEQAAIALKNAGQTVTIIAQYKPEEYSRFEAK
NHERF4_1, Q86UT5-2, sequence (Q86UT5 other isoform, or with tags, fused parts or gaps): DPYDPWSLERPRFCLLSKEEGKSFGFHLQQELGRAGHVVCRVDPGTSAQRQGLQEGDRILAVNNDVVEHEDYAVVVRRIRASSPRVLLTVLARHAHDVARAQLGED
DLG5_1, Q8TDM6, sequence (Q8TDM6 617-713): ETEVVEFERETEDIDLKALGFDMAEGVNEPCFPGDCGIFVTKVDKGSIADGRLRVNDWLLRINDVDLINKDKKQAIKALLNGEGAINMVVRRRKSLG
GRIP2_7, Q9C0E4, sequence (Q9C0E4 934-1023): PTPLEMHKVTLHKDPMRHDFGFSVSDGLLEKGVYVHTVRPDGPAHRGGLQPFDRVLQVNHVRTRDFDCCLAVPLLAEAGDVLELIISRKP
MAGI2_4, Q86UL8, sequence (Q86UL8 772-865): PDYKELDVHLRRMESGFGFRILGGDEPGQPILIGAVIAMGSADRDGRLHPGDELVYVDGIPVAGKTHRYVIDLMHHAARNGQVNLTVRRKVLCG
LDB3, O75112, sequence (O75112 1-94): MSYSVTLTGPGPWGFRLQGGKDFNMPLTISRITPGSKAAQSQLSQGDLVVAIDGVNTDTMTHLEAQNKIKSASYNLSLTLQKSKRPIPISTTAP
SCRIB_3, Q14160, sequence (Q14160 999-1103): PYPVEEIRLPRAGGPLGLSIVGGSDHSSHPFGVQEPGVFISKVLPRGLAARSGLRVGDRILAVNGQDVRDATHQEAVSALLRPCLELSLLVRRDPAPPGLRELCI
LAP2, Q96RT1, sequence (Q96RT1 other isoform, or with tags, fused parts or gaps): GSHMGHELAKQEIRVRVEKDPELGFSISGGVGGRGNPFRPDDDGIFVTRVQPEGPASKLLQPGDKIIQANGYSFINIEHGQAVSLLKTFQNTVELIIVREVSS
Inadl_10, Q8NI35, sequence (Q8NI35 1673-1763): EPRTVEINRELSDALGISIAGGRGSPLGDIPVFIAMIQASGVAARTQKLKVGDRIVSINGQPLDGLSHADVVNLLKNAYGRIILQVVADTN
IL16_3, Q14005, sequence (Q14005 1107-1207): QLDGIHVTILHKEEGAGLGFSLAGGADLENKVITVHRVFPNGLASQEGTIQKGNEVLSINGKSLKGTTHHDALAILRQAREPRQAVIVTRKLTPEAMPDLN
GRIP2_5, Q9C0E4, sequence (Q9C0E4 544-642): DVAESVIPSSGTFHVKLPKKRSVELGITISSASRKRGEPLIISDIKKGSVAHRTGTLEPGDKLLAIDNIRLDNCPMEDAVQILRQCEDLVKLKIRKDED
TJP2_1, Q9UDY2, sequence (Q9UDY2 24-128): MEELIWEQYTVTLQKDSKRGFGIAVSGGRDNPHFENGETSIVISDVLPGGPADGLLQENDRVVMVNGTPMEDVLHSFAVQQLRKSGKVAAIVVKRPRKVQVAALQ
Inadl_5, Q8NI35, sequence (Q8NI35 673-780): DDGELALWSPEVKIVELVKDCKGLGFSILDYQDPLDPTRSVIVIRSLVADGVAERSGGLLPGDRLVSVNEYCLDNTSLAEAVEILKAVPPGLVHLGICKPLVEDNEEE

pKd (GRID2IP_2, A4D2P6): 4.57 | pKd (HTRA3, P83110): below the threshold | pKd (SCRIB_3, Q14160): below the threshold | pKd (GOPC, Q9HD26): 4.3 | pKd (DLG5_1, Q8TDM6): below the threshold | pKd (LAP2, Q96RT1): 4.02 | pKd (MAGI2_4, Q86UL8): 3.48 | pKd (SCRIB_2, Q14160): 4.12 | pKd (GRIP2_5, Q9C0E4): below the threshold | pKd (Inadl_10, Q8NI35): 3.61 | pKd (IL16_3, Q14005): below the threshold | pKd (SNTG1, Q9NSN8): below the threshold | pKd (GRIP2_7, Q9C0E4): below the threshold | pKd (NHERF4_1, Q86UT5-2): 3.62 | pKd (SNX27, Q96L92): 4.55 | pKd (PCLO, Q9Y6V0): below the threshold | pKd (LIN7B, Q9HAP6): below the threshold | pKd (LNX2_2, Q8N448): 5.15 | pKd (NHERF4_2, Q86UT5): below the threshold | pKd (Inadl_5, Q8NI35): below the threshold | pKd (NHERF3_1, Q5T2W1): 4.33 | pKd (CARD11, Q9BXL7): below the threshold | pKd (LDB3, O75112): below the threshold | pKd (DLG4_3, P78352): below the threshold | pKd (NHERF3_3, Q5T2W1): 3.87 | pKd (LRRC7, Q96NW7): below the threshold | pKd (TJP2_1, Q9UDY2): 3.6 | pKd (PICK1, Q9NRD5): below the threshold
B1: PTPN18, Q99952 (peptide)
chain: RDPPAEWTRV

pKd (GRID2IP_2, A4D2P6): 3.68 | pKd (HTRA3, P83110): 4.17 | pKd (SCRIB_3, Q14160): below the threshold | pKd (GOPC, Q9HD26): below the threshold | pKd (DLG5_1, Q8TDM6): 3.59 | pKd (LAP2, Q96RT1): below the threshold | pKd (MAGI2_4, Q86UL8): 3.85 | pKd (SCRIB_2, Q14160): below the threshold | pKd (GRIP2_5, Q9C0E4): below the threshold | pKd (Inadl_10, Q8NI35): below the threshold | pKd (IL16_3, Q14005): below the threshold | pKd (SNTG1, Q9NSN8): below the threshold | pKd (GRIP2_7, Q9C0E4): below the threshold | pKd (NHERF4_1, Q86UT5-2): 3.66 | pKd (SNX27, Q96L92): 3.68 | pKd (PCLO, Q9Y6V0): below the threshold | pKd (LIN7B, Q9HAP6): below the threshold | pKd (LNX2_2, Q8N448): 4.04 | pKd (NHERF4_2, Q86UT5): below the threshold | pKd (Inadl_5, Q8NI35): 3.49 | pKd (NHERF3_1, Q5T2W1): 4.55 | pKd (CARD11, Q9BXL7): below the threshold | pKd (LDB3, O75112): below the threshold | pKd (DLG4_3, P78352): below the threshold | pKd (NHERF3_3, Q5T2W1): below the threshold | pKd (LRRC7, Q96NW7): below the threshold | pKd (TJP2_1, Q9UDY2): 3.94 | pKd (PICK1, Q9NRD5): below the threshold
B2: CLDN3, O15551 (peptide)
chain: GTGYDRKDYV
